Consider one protein from article PMC3154878.

A short description of the series: cycloheximide chase, Western blot, Hepa1A. The note with it: glycan lost; control: wild type. On the technique in general: In western blotting, separated proteins are transferred to a membrane and probed.

B1: ERManI: ERManIO-def (protein)
parent chain: MAACEGRRSGALGSSQSDFLTPPVGGAPWAVATTVVMYPPPPPPPHRDFISVTLSFGENYDNSKSWRRRSCWRKWKQLSRLQRNMILFLLAFLLFCGLLFYINLADHWKALAFRLEEEQKMRPEIAGLKPANPPVLPAPQKADTDPENLPEISSQKTQRHIQRGPPHLQIRPPSQDLKDGTQEEATKRQEAPVDPRPEGDPQRTVISWRGAVIEPEQGTELPSRRAEVPTKPPLPPARTQGTPVHLNYRQKGVIDVFLHAWKGYRKFAWGHDELKPVSRSFSEWFGLGLTLIDALDTMWILGLRKEFEEARKWVSKKLHFEKDVDVNLFESTIRILGGLLSAYHLSGDSLFLRKAEDFGNRLMPAFRTPSKIPYSDVNIGTGVAHPPRWTSDSTVAEVTSIQLEFRELSRLTGDKKFQEAVEKVTQHIHGLSGKKDGLVPMFINTHSGLFTHLGVFTLGARADSYYEYLLKQWIQGGKQETQLLEDYVEAIEGVRTHLLRHSEPSKLTFVGELAHGRFSAKMDHLVCFLPGTLALGVYHGLPASHMELAQELMETCYQMNRQMETGLSPEIVHFNLYPQPGRRDVEVKPADRHNLLRPETVESLFYLYRVTGDRKYQDWGWEILQSFSRFTRVPSGGYSSINNVQDPQKPEPRDKMESFFLGETLKYLFLLFSDDPNLLSLDAYVFNTEAHPLPIWTPA
Regarding B1, the degradation_or_half_life result is “no change”.
